What all share (assay): FACS binding
Assay [1] addresses T1, PD-L1 expressed on CHO-K1 cells (UniProt Q9NZQ7 19-290).
Assay [2] addresses T1, PD-L1 expressed on CHO-K1 cells. The source holds these as a separate data set.
Assay [3] deals with T2, LAG-3 expressed on CHO-K1 cells (UniProt P18627 23-525).
T2 chain: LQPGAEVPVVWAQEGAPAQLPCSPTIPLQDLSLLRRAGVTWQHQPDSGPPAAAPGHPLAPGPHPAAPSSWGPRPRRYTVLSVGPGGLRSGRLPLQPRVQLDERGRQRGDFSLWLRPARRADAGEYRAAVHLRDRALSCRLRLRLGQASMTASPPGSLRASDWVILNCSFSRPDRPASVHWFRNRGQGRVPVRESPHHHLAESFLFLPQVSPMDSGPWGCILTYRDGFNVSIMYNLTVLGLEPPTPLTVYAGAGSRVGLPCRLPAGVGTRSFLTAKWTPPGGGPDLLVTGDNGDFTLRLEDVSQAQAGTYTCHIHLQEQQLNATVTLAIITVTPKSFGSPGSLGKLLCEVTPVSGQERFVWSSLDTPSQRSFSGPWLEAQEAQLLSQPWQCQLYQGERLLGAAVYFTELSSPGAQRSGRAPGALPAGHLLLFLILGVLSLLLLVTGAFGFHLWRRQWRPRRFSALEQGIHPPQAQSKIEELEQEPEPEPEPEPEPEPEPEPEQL

For assay [4], the target named is T2, LAG-3 expressed on CHO-K1 cells.

Where a chain is given by its changes, count along the chain named. Read-outs that look alike come from different tables or passages of the source.

T1 sequence (Q9NZQ7 19-290): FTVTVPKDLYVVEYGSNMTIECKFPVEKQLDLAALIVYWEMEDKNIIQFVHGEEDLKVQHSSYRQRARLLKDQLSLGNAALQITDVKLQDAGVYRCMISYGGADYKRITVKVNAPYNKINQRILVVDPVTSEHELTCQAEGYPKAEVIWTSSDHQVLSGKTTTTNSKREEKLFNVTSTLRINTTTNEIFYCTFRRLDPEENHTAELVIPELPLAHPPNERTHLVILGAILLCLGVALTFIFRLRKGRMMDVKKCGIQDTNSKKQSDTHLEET

B1: PDL1HCv1 (antibody, V domains shown)
VH: EVQLVQSGAEVKKPGASVKVSCKASGYIFTGYGITWVRQAPGQGLEWMGEIFPRRVQTYYSEKFKGRVTMTTDTSTSTAYMELRSLRSDDTAVYYCARDYDPYFALDYWGQGTTVTVSS
VL: DIQMTQSPSSLSASVGDRVTITCRASQDVSTAVDWYQQKPGKAPKLLIYSASYRYTGVPDRFSGSGSGTDFTFTISSLQPEDIATYYCQQHYSIPFTFGQGTKLEIKR
Turning to B1, the concentration for a half-maximal effect (EC50) in assay [1] stood at 0.651 nM; in assay [2], 0.205 nM; in assay [3], 0.0376 nM.

B2: PDL1HCv5 (antibody, V domains shown)
VH: B1 VH with T72A
VL: B1 VL
For the molecule B2, the EC50 in assay [1] was 0.311 nM; in assay [4], 8.42 nM.
